# Patent US20250230253A1 (Memorial Sloan Kettering, published 2025)
# Where a chain is given by its changes, count along the chain named.
# T1: mouse CD40 (mouse, UniProt P27512 20-193, limits assumed)
# T1 construct: Recombinant mouse CD40 protein for ELISA; The construct and tag are not described; also called mCD40
# T1 sequence (looked up): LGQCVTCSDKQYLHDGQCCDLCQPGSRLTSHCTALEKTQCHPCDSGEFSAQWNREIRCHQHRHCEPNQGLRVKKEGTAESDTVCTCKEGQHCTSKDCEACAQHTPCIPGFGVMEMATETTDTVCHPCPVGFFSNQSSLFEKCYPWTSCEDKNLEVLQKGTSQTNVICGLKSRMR
# B1: anti-CD40 antibody 10-K9 (antibody, V domains shown)
# VH: EVQLVESGGDLVKPGGSLKLSCAASGFTFSSYGMSWVRQTPDKRLEWVATISSDGSHTYYPDSVKGRFTISRDIAKNTLYLQMSSLKSEDTAMYYCVRQGRYVPSFDVWGAGTTVTVSS
# VL: DIVLTQSPATLSVTPGDSVSLSCRASQSIRNNLHWYQQKSHESPRLLIKDASQSISGTPSRFSGSGSGTDFTLSINSVETEDFGMYFCHQTNNWPFTFGSGTKLEIK
# notes: Mouse hybridoma monoclonal antibody tested as hybridoma supernatant and detected with anti-mouse IgG-HRP
# B2: anti-CD40 antibody 10-B8 (antibody, V domains shown)
# VH: QVQLQQPGSVLVRPGASVKLSCKASGFTFATSWMHWAKERPGQGLEWIGQIHPNSGNTNYNEKFKGKATLTVDTSSSTAYVDLSSLTSEDSAVYYCARGADYAMDYWGQGTSVTVSS
# VL: DVLMTQTPLSLPVSLGDQASISCRSSQSIVHSNGNTYLEWYLQKPGQSPKLLIYIVSNRFSGVPDRFSGSGSGTDFTLKISRVEAEDLGVYYCFQGSHVPWTFGGGTKLEIK
# notes: as for B1
# B3: anti-CD40 antibody 12-O17 (antibody, V domains shown)
# VH: QVQLQQSGAELMKPGASVKISCKATGYTFSTYWIEWVKQRPGHGLEWIGEILPGSGSTNYNENFKGKATFTADTSSNTAYMQLSSLTSEDSAVYFCARGGLYYYGGAMDYWGQGTSVTVSS
# VL: DIVMSQSPSSLAVSVGEKVTMSCKSSQSLLYSGNQKNYLAWYQQKPGQSPKLLIYWASIRESGVPDRFTGSGSGTDFTLTISSVKAEDLAVYYCQQYYSYPYTFGGGTKVEIK
# notes: as for B1
# B4: anti-CD40 antibody 30-P15 (antibody, V domains shown)
# VH: EVMLVESGGALVKPGGSLKLSCAASGFTFSNYAMSWVRQTPEKRLEWVATIGTSGSYTYYSDSVKGRFTISRDNARNTLYLQMTSLRSEDTAMYYCARRGYYNPTHAMDYWGQGTSVTVSS
# VL: QAVVTQESALTTSPGETVTLTCRSSTGAVTTSNYANWVQEKPDHLFTGLIGGTNNRAPGVPARFSGSLIGDKAALTITGAQTEDEAIYFCALWYSNHLVFGGGTKLTVL
# notes: as for B1
# B5: anti-CD40 antibody 41-E17 (antibody, V domains shown)
# VH: DVQLVESGGGLVQPGGSRKLSCAASGFTFSTFGMHWVRQAPEKGLEWVAYISGGSSTIYYADTVKGRFTISRDNPKNTLFLQMTSLRSEDTAMYYCVRPYGSVHYAMDYWGQGTSVTVSS
# VL: DIQMTQTTSSLSASLGDRVTISCRASQDINNYLNWYQQKPDGTVKLLIYYTSRFHSGVPSRFSGSGSGTDYSLTISNLEQEDIATYFCQQGNTLPWTFGGGTKLDIK
# notes: as for B1
# B6: anti-CD40 antibody 41-I22 (antibody, V domains shown)
# VH: EVQLQQSGAVLVKPGASVRLSCTASGFNIKDTYIHWVKQRPEQGLEWIGKIDPANGNTKFDPKFQGKATIAADTSSNTAYLQLSSLTSEDTAVYYCARDYYGTIFPYWYFDVWGAGTTVTVSS
# VL: QIVLTQSPAIMSASPGEKVTITCSASSSVSYMHWFQQKPGTSPKFWIYITSNLASGVPARFSGSGSGTSYSLTISRMEAEDAATYYCQQRSSYPLTFGAGTKLELK
# notes: as for B1
# B7: anti-CD40 antibody 39-K17 (antibody, V domains shown)
# VH: QVQLQQPGAELVKPGASVKLSCTASGYIFTNYWMNWVKQRPGRGLEWIGRIHPSDSESLYNQKFKSKAILTVDKSSSTAYIQLSSLTSEDSAVYYCARSPLTKVVTTDFWGQGTTLTVSS
# VL: EIVLTQSPAIMPASPGEKVTMTCSASSSVNYMHWYQQKSGTSPKRWIYDTSKLASGVPVRFSGSGSGTSYSLTISSMEAEDAATYYCQQWSSNPLTFGGGTKLEIK
# notes: as for B1
# B8: anti-CD40 antibody 41-J9 (antibody, V domains shown)
# VH: DVQLQESGPDLVKPSQSLSLTCTVTGYSITSDYSWHWIRQFPGNKLEWMGYIYYSGSTNYNPSLKSRISITRDTSKNQFFLQLNSVTSEDTATYYCARFYYGWSYFDYWGQGTSLTVSS
# VL: B7 VL
# notes: as for B1
# B9: anti-CD40 antibody 26-I22 (antibody, V domains shown)
# VH: QVQLQQPGAELVKPGASVKLSCKASGYTFINYWINWMRQRPGQGLEWIGNIYPGSSSTTYNEKFKSKAALTVDTSSSTAYMQLSSLTSDDSAVYFCARSVGYWYFDVWGAGTTVTVSS
# VL: B3 VL with M21L, L30F, Y31F, Y38F, K51N, Y55F, I59T, Y102F, G106S, V110L
# notes: as for B1
# B10: anti-CD40 antibody 9-P1 (antibody, V domains shown)
# VH: QVQLQQSGAELMKPGASVKISCKATGYTFSTYWIEWVKQRPGHGLEWIGEILPGSGSTNYNEKFRGKATFTADTSSNTAYMQLSSLTSEDSAVYYCARSYYTYDQGSWLAYWGQGTLVTVSA
# VL: B3 VL with S22T, Y55N, I59T, F68L, T78S, V110L
# notes: as for B1
# Target: T2, human CD40 (human, UniProt P25942 21-193)
# T2 construct: Recombinant protein coated for ELISA; The primary screen used 'soluble, His-tagged human CD40 (full-length and IgC2)'; also called huCD40; hCD40; not shown: His tag
# Assay: ELISA on recombinant human CD40 protein, hybridoma supernatant
# T2 sequence (P25942 21-193 limits assumed): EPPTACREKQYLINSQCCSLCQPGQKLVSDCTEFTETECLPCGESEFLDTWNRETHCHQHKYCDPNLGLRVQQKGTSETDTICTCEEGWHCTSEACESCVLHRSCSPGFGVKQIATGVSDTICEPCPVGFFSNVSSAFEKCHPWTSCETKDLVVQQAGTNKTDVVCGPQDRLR
row,binding result,Binder
1,binds,B1
2,binds,B2

# Target: T1, mouse CD40
# Assay: ELISA on recombinant mouse CD40 protein, hybridoma supernatant
row,binding result,Binder
1,no binding,B1
2,no binding,B3
3,no binding,B4
4,no binding,B5
5,no binding,B6
6,no binding,B7
7,no binding,B8

# Target: T2, human CD40
# Assay: ELISA of subcloned hybridoma supernatants on hCD40, anti-mouse IgG-HRP detection
# Protocol: Next, the hybridomas were selected for subcloning to identify monoclonal antibodies against CD40. Briefly, cells were plated at a 1 cell per well density in 384-well plates, confirmed by microscopy, and expanded. After expansion, supernatants were screened by ELISA against hCD40. The mAbs were detected using anti-mouse IgG-conjugated to HRP.
row,binding result,Binder
1,binds,B9
2,binds,B3
3,binds,B4
4,binds,B10
5,binds,B5
6,binds,B6
7,binds,B7
8,binds,B8
